Data: US20250313644A1 (FUTUREGEN BIOPHARMACEUTICAL BEIJING, published 2025)

Key:
TNFα [1] = target: T1, TNFα (UniProt P01375 77-233); experiment: ELISA, coated TNFα
Description: (§1) In this experiment, ELISA was used to assess the binding ability of monoclonal antibodies to TL1A homologous molecules. Representative members of the TNF ligand superfamily, TNFα, LT-α, LIGHT and FASL, were selected for binding testing. 1 μg/mL of TNFα, LT-α, LIGHT or FASL was coated in a microplate with a carbonate buffer solution at pH=9.6, 100 μL per well, and the microplate was incubated at 4° C. overnight. The microplate was then washed 5 times with PBST, blocked with 300 μL/well of PBS containing 1% BSA, and was incubated at room temperature for 1 hour. After washing 5 times with PBST, about 100 μL each of the M701 monoclonal antibodies and the control antibodies were added to each well, and were incubated at room temperature for 1 hour. After washing 5 times with PBST, 100 μL of HRP-anti-human Fc (Sino Biological) was added to each well, and was incubated at room temperature for 1 hour. After washing 5 times with PBST, 100 μL of colorimetric substrate TMB was added to each well, and color was developed at room temperature for 10 minutes, followed by addition of 1M sulfuric acid to terminate the reaction. OD450 nm was recorded on a microplate reader.

TNFα [2] = target: T1, TNFα; experiment: ELISA, coated TNF-α, Ab 1.563 nM
Description: as §1

TNFα [3] = target: T1, TNFα; experiment: ELISA, coated TNF-α, Ab 0.391 nM
Description: as §1

LT-α [4] = target: T2, LT-α (UniProt P01374 35-205); experiment: ELISA, coated LT-α, Ab 0.000 nM (blank)
T2 sequence (looked up): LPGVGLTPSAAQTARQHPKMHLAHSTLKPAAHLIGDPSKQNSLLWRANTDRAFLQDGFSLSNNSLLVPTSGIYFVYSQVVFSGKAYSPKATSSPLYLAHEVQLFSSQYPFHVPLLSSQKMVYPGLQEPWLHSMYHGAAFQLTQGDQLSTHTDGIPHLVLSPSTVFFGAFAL
Description: as §1

FASL [5] = target: T3, FASL (UniProt P48023 134-281, limits assumed); experiment: ELISA, coated FASL, Ab 0.000 nM (blank)
T3 sequence (looked up): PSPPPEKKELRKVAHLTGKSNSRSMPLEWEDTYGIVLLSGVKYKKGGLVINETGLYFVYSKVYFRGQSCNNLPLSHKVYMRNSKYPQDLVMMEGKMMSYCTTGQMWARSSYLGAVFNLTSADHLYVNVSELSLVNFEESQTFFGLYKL
Description: as §1

FASL [6] = target: T3, FASL; experiment: ELISA, coated FASL, Ab 1.563 nM
Description: as §1

TNFα [7] = target: T1, TNFα; experiment: ELISA, coated TNF-α, Ab 25 nM
Description: as §1

LT-α [8] = target: T2, LT-α; experiment: ELISA, coated LT-α, Ab 1.563 nM
Description: as §1

LIGHT [9] = target: T4, LIGHT (UniProt O43557 74-240, limits assumed); experiment: ELISA, coated LIGHT, Ab 0.391 nM
Description: as §1

FASL [10] = target: T3, FASL; experiment: ELISA, coated FASL
Description: as §1

TNFα [11] = target: T1, TNFα; experiment: ELISA, coated TNF-α, Ab 0.000 nM (blank)
Description: as §1

LIGHT [12] = target: T4, LIGHT; experiment: ELISA, coated LIGHT
Description: as §1

LT-α [13] = target: T2, LT-α; experiment: ELISA, coated LT-α, Ab 6.25 nM
Description: as §1

FASL [14] = target: T3, FASL; experiment: ELISA, coated FASL, Ab 0.391 nM
Description: as §1

human TL1A (HuTL1A) [15] = target: T5, human TL1A (HuTL1A) (human, UniProt O95150 57-251, limits assumed, biotin-labelled in some assays (site not stated)); experiment: cell-based or functional assay
T5 sequence: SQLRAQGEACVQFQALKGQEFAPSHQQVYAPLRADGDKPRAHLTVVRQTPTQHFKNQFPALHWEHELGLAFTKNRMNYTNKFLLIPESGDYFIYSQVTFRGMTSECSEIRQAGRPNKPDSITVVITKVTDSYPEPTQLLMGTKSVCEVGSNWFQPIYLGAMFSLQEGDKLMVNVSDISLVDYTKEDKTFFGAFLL

FASL [16] = target: T3, FASL; experiment: ELISA, coated FASL, Ab 100 nM
Description: as §1

FASL [17] = target: T3, FASL; experiment: ELISA, coated FASL, Ab 6.25 nM
Description: as §1

LIGHT [18] = target: T4, LIGHT; experiment: ELISA, coated LIGHT, Ab 100 nM
Description: as §1

LIGHT [19] = target: T4, LIGHT; experiment: ELISA, coated LIGHT, Ab 1.563 nM
Description: as §1

LT-α [20] = target: T2, LT-α; experiment: ELISA, coated LT-α, Ab 25 nM
Description: as §1

LIGHT [21] = target: T4, LIGHT; experiment: ELISA, coated LIGHT, Ab 25 nM
Description: as §1

LT-α [22] = target: T2, LT-α; experiment: ELISA, coated LT-α
Description: as §1

LIGHT [23] = target: T4, LIGHT; experiment: ELISA, coated LIGHT, Ab 6.25 nM
Description: as §1

LT-α [24] = target: T2, LT-α; experiment: ELISA, coated LT-α, Ab 100 nM
Description: as §1

FASL [25] = target: T3, FASL; experiment: ELISA, coated FASL, Ab 25 nM
Description: as §1

LT-α [26] = target: T2, LT-α; experiment: ELISA, coated LT-α, Ab 0.391 nM
Description: as §1

LIGHT [27] = target: T4, LIGHT; experiment: ELISA, coated LIGHT, Ab 0.000 nM (blank)
Description: as §1

human TL1A (HuTL1A) [28] = target: T5, human TL1A (HuTL1A); experiment: cell-based or functional assay; remark: listed apart in the source
TNFα [29] = target: T1, TNFα; experiment: ELISA, coated TNF-α, Ab 6.25 nM
Description: as §1

TNFα [30] = target: T1, TNFα; experiment: ELISA, coated TNF-α, Ab 100 nM
Description: as §1

human TL1A (HuTL1A) [31] = target: T5, human TL1A (HuTL1A); experiment: DLS, antigen and antibody mixed in equal moles
Description: 60 μM antigen and antibody was mixed in equal moles, incubated at room temperature for 30 minutes, and then the molecular size was detected using UNCLE or SEC.

T4 sequence (O43557 74-240 limits assumed): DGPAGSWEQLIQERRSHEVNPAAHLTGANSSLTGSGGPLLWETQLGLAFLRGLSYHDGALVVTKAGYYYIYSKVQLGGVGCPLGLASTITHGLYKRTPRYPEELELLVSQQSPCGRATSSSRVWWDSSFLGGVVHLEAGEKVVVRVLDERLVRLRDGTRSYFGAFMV
T1 sequence (P01375 77-233 limits assumed): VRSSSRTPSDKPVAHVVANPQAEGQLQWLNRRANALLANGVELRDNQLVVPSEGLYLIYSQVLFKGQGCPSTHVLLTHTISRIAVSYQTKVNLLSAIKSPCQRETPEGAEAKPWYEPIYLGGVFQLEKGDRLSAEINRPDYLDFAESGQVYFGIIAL

B1: M701-4019 (antibody, human IgG1, kappa, L234A L235A, V domains shown)
VH: ELQLQESGPGLVKPSETLSLTCAVSGVSFTDYHWAWIRQPPGKGLEWIGDINHRGHTNYNPSLKSRVTVSIDTSKNQFSLKLSSVTAADTAVYYCARDYPNFIYDYWGQGTLVTVSS
VL: DIQLTQSPGTLSLSPGERATLSCRASQSVSNYLAWYQQKPGQAPRLLIYGASRRATGIPARFSGSGSGTDFTLTISSLEPEDFAVYYCQQYAASPLTFGQGTKVEIKR
notes: Fc-engineered IgG1
- binding result (TNFα [1]): no binding (tested: 100 nM)
- OD450 nm (TNFα [2]): 0.057
- OD450 nm (TNFα [3]): 0.0567
- OD450 nm (LT-α [4]): 0.0648
- OD450 nm (FASL [5]): 0.0602
- OD450 nm (FASL [6]): 0.0514
- OD450 nm (TNFα [7]): 0.066
- OD450 nm (LT-α [8]): 0.0602
- OD450 nm (LIGHT [9]): 0.0528
- binding result (FASL [10]): no binding (tested: 100 nM)
- OD450 nm (TNFα [11]): 0.0748
- binding result (LIGHT [12]): no binding (tested: 100 nM)
- OD450 nm (LT-α [13]): 0.0566
- OD450 nm (FASL [14]): 0.0506
- IC50 (read off the curve); IFN-γ of human T cells with IL-12, IL-18 and exogenous human TL1A (human TL1A (HuTL1A) [15]): ~0.2 nM
- OD450 nm (FASL [16]): 0.0886
- OD450 nm (FASL [17]): 0.0529
- OD450 nm (LIGHT [18]): 0.0942
- OD450 nm (LIGHT [19]): 0.0539
- OD450 nm (LT-α [20]): 0.0627
- OD450 nm (LIGHT [21]): 0.061
- binding result (LT-α [22]): no binding (tested: 100 nM)
- OD450 nm (LIGHT [23]): 0.0572
- OD450 nm (LT-α [24]): 0.067
- OD450 nm (FASL [25]): 0.0612
- OD450 nm (LT-α [26]): 0.0572
- OD450 nm (LIGHT [27]): 0.0563
- IC50 (read off the curve); SEAP reporter in HEK293T/DR3-NFκB cells with soluble TL1A, OD655 (human TL1A (HuTL1A) [28]): ~1 nM
- OD450 nm (TNFα [29]): 0.0591
- OD450 nm (TNFα [30]): 0.105
- Ave Z-dia (nm) of the antigen-antibody complex (human TL1A (HuTL1A) [31]): 18.5 nm
